Experimental data: the nanobody polyreactivity screen of Harvey et al. (2022)

Experiment: yeast display, Sf9 membrane polyspecificity reagent, FACS + sequencing; frameworks hold sequencing errors
Procedure, shortened: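 Nanobodies from a synthetic yeast display library (Saccharomyces cerevisiae BJ5465), induced 36–48 hours with galactose, were stained 1 hour at 4 °C with 10% biotinylated, detergent-solubilized Sf9 membrane reagent, enriched on streptavidin microbeads, then FACS-sorted. Anti-HA (expression) and streptavidin (reagent binding) fluorescence set low and high (top ~1%) gates. Polyreactivity labels come from the gate of origin. Genes were colony-PCR amplified, MiSeq 2 × 250 sequenced and filtered by CDR length.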

Sequence	polyreactivity (PSR sort gate)
QVQLVESGGGLVQAGGSLRLSCAASGFTFYQYAMGWYRQAPGKERELVAAISSSGTSTYYADSVKGRFTISRDNAKNTVYLQMNSLKPEDTAVYYCAARRYKLFYWGQGTQVTVSS	low polyreactivity
QVQLVESGGGLVQAGGSLRLSCAASGSTFCRNTMGWYRQAPGKERELVAAINRSASNTYYADSVKGRFTISRDNAKNTVYLQMNSLKQEDPAVYYCSTYSRIFKWEYYYWGQGTQGTVSS	high polyreactivity
QVQLEESGGGLVQAGGSLRLSCAASGRTFGWNGMGWYRQAPGKERELVAVISSGGSTKYADSVKGRFTISRDNAKNTVYLQMNSLKPEDTALYYCAKDWVRSGRRNMDYWGQGTQVTFSS	low polyreactivity
QVQLVESGGGLVQAGGSLRLSCAASGRTFGLYAMGWYRQAPGKERELVAAISYSGGRTYYADSVKGRFTISRDNAKKTVYLQMNILKPEDTAVYYCNKAWFRYYYYRFDYWGLGTQVTVSS	high polyreactivity
QVQLVESGGGLVQAGGSLRLSCAASGSIFYPNAMGWYRQAPGKERELVAAISSSGGTNYADSVKGRFTISRDNAKNTVYLQMNSLKPEDTAVYYCNARDKVRYRYSRMDYWGQGTQVTVSS	low polyreactivity
QVQLVESGGGLVQAGGSLRFSCAASGRIFTAYTMGWYRQAPGKERELVAAITRAGRTYYADSVKGRFTISRDNAKNTVYLQMNSLKPEDTAVYYCNTAPNYKYGYWGQGTQVTVSS	high polyreactivity
QVQLVESGGGLVQAGGSLRLSCAASGSTLQSYAMGWYSQAPGKERELVAGIRISGGNTRYADSVKGRFTISRDNAKNTVYLQMNSLKPEDTAVYYCAALTGFYNLRPYGYWGQGTQVTVSS	high polyreactivity
QVQLVESGGGLVQAGGSLRLSCAASGFIFSKNAMGWYRQAPGKERELVAAISTRGGSTYYADSVKGRFTISRDNAKNTVYLQMNSLKPEDTAVYYCNKEWYPYKHNYWGQGTQVTVSS	low polyreactivity
QVQLVESGAGLVQAGGSLRLSCAASGSTVAGNAMGGYRQAPGTERELVAAIDSSTGSTYYADCVKGRFTISRDNAKITVYLLMNSLKPEDTAVYYCADDQVHKREYDYWGQGTQVTVSS	low polyreactivity
QVLLVESGGGLVQAGGSLRLSCGASGITFAEYAMGWYRKAPGKEREFVAAISRRGGSTYYADSVKGRFTISRDNAKNTVYIQMNTLKPEDTAVYYCNRRYDTFRFEHDYDYWGQGTQVTVSS	low polyreactivity
QVQLVESGGGLVQAGGSLRLSCAASGRIFVKYVIGWYRQAPGKERELVAAISSSGGRTYYADSVKGRFTISRDNAKNTVYLQMNSLKPEDTAVYYCAASFRRIYVSGLGGPFDYWGQGTQVNVSS	high polyreactivity
QVQLVESGGGLVQAGGILRLSCAASGRTFNSYAMGWYRQAPGKERELVAAISWIGGSTYYADSVKGRFTISRDNAKNTVYLQMNSLKPEDTAVYYCAADSYRFYSGYYYWGQGTQVTVSS	low polyreactivity
QVQLVESGRGLVHAGGSHRISCAASGRTFYYYAMGWYRQAPGKERELVAAITRGGSTNYADSVKGRFTISRDNAKITVYLQMNSLKPEDTAVYYCAQPWFYQNRGYDYWGQGTQVTVSS	low polyreactivity
QVQLVESGGGLVQAGGSLRLSCAASGLTFDYYAMGWYRQAPGKERELVAAIDWSGGSTYYADSVKGRFTISRDNAMNTVYFQMNSLKPEDSAVYYCATESDDSGMDYWGQGTQVTVSS	low polyreactivity
QVQLVESGGGLVQAGGSLRLSCAASGLTFVYNDMGWYRQAPGKERELVAGITSGGSTYYADSVKGRFTISRDNAKNTVYLQMNSLKPEDTAVYYCAADGLSTDLFRPDSIVDYWGQGTQVTVSS	low polyreactivity
QVQLVESGGGLVQAGGSLRLSCAASGRIFTNNAMGWYRQAPGKERELVAAISRSGGRTYYADSVKGRFTISRDNAKNTVYLQMNSLKPEDTAVYYCAAVHLYYGYNSPFTMDYWGQGTQVTVSS	high polyreactivity
QVQLVESGGGLVQAGGSLRLSCAASGRILHEYAMGWYRQAPGKERELVAAITFSGTSTYYADSVKGRFTISRDNAKNTVYLQMNSLKPEDTAVYYCAADTYGGSRDYWGQGTQVTVSS	low polyreactivity
QVQLVESGGGLVQAGGSLRLICAASGRIFYINAMGWYRQAPGKERELVASITGSGGRTYYADSVKGRFTISRDNAKNTVYLQMNSLKPEDTAVYYCNADLYVGYLYYLYDYWGQGTQVTVSS	low polyreactivity
QVQLVESGGGIVQAGGSLRLSCAASGRIFYRYDMGWYSQARGKERELVAAINDGGSTYYADSVKGRFTISRDNAKNTVYLQMNSLKPEDTAVYYCKVVNEHQSDFVVPFDYNHWGQGTQVTVSS	low polyreactivity
QVQLVESGGGLDQAGGSLRLSCAASGRTFYYNAMGWYRQAPGKERELVADINWSGVRTYYADSVKGRFTISRDNAKNTVYLQMNSLKPEDTAVYYCAARYRTLTKYYWGQGTQVTVSS	low polyreactivity
QVQLQESGGGLAQAGGSLRLSCAASGTIFPADSMGWYRQAPGKERELVAGITSGANTYYADSVKGRFTISHDNAKYTVYLQMDSLIPEDIAVYYCAAPGSSTYDLEYWGQGTQVTVSS	high polyreactivity
QVQLVESGGGLVQAGGSLRLSCAASGSTFSPYDMGWYRQAPGKERELVAAITYRGGSTYYADSVKGRFTISRDNAKNTVYLQMNSLKPEDTAVYYCAAEIYQYSYGGTGWTLDWGQGTQVTVSS	low polyreactivity

Sequence	polyreactivity (PSR sort gate)
QVQLVESGGGLVQAGGSLRLSCAASGNTFLIYAMGWYRQAPGKERELVAGITSSGSTYYADSVKGRFTISRDNAKNTVYLQMNSLKPEDTAVFYCAAEYIFYLYYDTAELYDYWGQGTQVTVSS	low polyreactivity
QVQLVESGGGLVQAGGSLRLSCAASGSTFRNYAMGWYRQAPGKERELVAAITKRGGTTYYADSVKGRFTISRDNAKNTVYLQMNSLKPEDTAVYYCATRQLSKVKDMDYWGQGTQVTVSS	high polyreactivity
QVQLVESGGGIVQAGGSLRLSCAASGFTFARNAMGWSRQAPGNEWELVAAISYRGGSTYYADSVKGRFTISRDNAKNTLYLQMNSLKPQDTAVYYCAAEVVWYVYRRYYYWGQGTQVTVSS	high polyreactivity
QVQLVESGGGLVQAGGSLRLSCAASGRIFGYYAMGWYRQAPGKERELVAAITWGGGTTRYADSVKGRFTISRDNAKNTVYLQMNSLKPEDTAVYYCATALWVRYYGQGGYIRRYDYWGQGTQVTVSS	high polyreactivity
QVQLVESGGGLVQAGGSLRLSCAPSGRTFGYNGRGWSRQEPGKESELVAAINSGGNTNYADSVKGRFTISRDYAKNTVYLQMNSLKPEDTAVYYCAKYGTLFEPVPNEYDYWGQGTQVTVSS	low polyreactivity
QVQLVESGGGLVQAGGSLRLSCAASGFTFPLYAMGWYRQAPGKERELVAVISRSGGSTYYADSVKGRFTISRDNAKNTVYLQMNSLKPEDTAVYYCAARLVPRSPERGNYDYWGQGTQVTVSS	high polyreactivity
QVQLQESGGGLMQAGGSQRLSCAASGSISYYSDMGWYPQAPGKEREFVAGIGYGTTTNYADSVKGRFTTSRDNAKNTVYMQMISMKPEDTAVYYCAAYQGNGYEFYYWGQGTQVTVRS	low polyreactivity
QVQLVESGGGLVQAGGSLRLSCAASGIIFRNYAMGWYRQAPGKEREFVASITKRGGSTYYADSVKGRFTISRDNAKNTVYLQMNSLKPEDTAVYYCNTQWYRGRTEYGYWGQGTQVTVSS	high polyreactivity
QVQLVESGGGLVQAGGILRLSCAASGRTFAPYTMGWYRQAPGKERELVAVITRRDGRTYYADSVKGRFTISRDNAKNTFYLQMKSLKPEDNAVYYCCFLPADWYRPVRYLRTDSDYWGQGTKVTVSS	low polyreactivity
QVQLVESGGGLVQAGGSLRLSCAASGITIRYYTMGWYRQAPGKESELVASISWSGTSTHYADSVKGRFTISRDNAKNTVYLQMNSLKPEDTAVYYCAATITSLAGVYRNGYTSYYWGQGTQVTVSS	high polyreactivity
QVQLVESGGGLVQAGGSLRLSCAASGRIFRYYARGWYRQAPGKEMELVAAISGSGGSTYYADSVKGRFTISRDNAQKTVYLQIHCLKPEDTAVYSCNARYRIPSGEGDHWGQGTQVTVSS	low polyreactivity
QVQLVESGGGLVQAGGSLRLSCAASGRIFWTYAMGWYRPAPGKERELVAAITWRGGSTSYADSVKGRFTISRDNAKNTVYLQMNSLKPEDTAVYYCNARYSGYSPWGNDYWGQGTQVTVSS	high polyreactivity
QVQLVESGGGLVQAGGRLRLSCAASGSTFWYYAMGWSRQAPGKEREFVAAITTGGSSTYYADSVKGRFTISRDNAKNTVYLQMNSLKPEDTAVYYCAARGWRSPYAYYYWGQGTQVTVSS	high polyreactivity
QVQLVESGAGLVQAGGILRLSCAASGRTFKVYAMGWDRQAPGKERELVAAISDRGGSTYDADSVKGRFTISRDYAKNTVYLQMNSLKPVDTAVYYCSAEYARSTWRAFPELDYWGQGTQVTVSS	low polyreactivity
QVQLVESGGGLVQAGGSLRLSCAASGFTFRLNAMGWYRQAPGPERELVAAITRSGGNTYYADSVKGRFTIPRDNAKNTVYLQMNSLKPEDTAVYYCAARYFYWFRPTEYYYWGQGTQLTVSS	high polyreactivity
QVQLVESGGGLVQSGGSLRLSCAASGGSFTFYAMGWYRQAPGKERELVATINWSGGSTYYADSVKGRFTISRDNAKNTVYLQMNSLKPEDTAVYYCNAAWPYKSVEYWGQGTQVTVSS	low polyreactivity
QLHLVESGGGLVQAGGSLRLSCAASGLTFDQYAMGWYRQAPGKERELVAAISGSDSTYYADSVKGRFTISRDNAKNTVYLQMNSLKPEDTAVYYCAASGDYVNIITGERFDARLYDYWGQGTQVTVSS	low polyreactivity
QVQLVESGGGLVQAGGSLRLSCAASGSIFGVYAMGWYRQAPGKERELVAAISWSGTSTYYADSVKGRFTISRDNAKNTVYLQMNSLKPEDTAVYYCNGDWVLDGYDYDSWGQGTQVTVSS	low polyreactivity
QVQLVESGGGLVQAGGSLRLSCAASGRTFKYNAMGWYRQAPGKERELVAAITSSGGRTYYADSVKGRFTISRDNAKNTVYLQMNSLKPEDTAVYYCAARGYPSDYKYEYNYWGQGTQVTVSS	high polyreactivity
QVQLVESGGGLVQAGGSLRLSCAASGSTFLYYAMGWYRQAPGKERELVAVISWSGVSTYYADSVKGRFTISRDNAKNTVYLQMNSLKPEVTAVYYCNTGNHYIRTYGYWGQGTQVTVSS	low polyreactivity
QVQLVESGGCLVQAGGSLRLSCAASGSIFSSYQMGWYRQAPGKQRELVEAISSGGSTNYADSVKGRFTISRDNAKNTVYLQMHRLKPEDTAVYYCNVDLFNWGGDSTGYDYWGQGTQVTVSS	low polyreactivity
